Results reported in the Immune Epitope Database (IEDB).

molecular target: HLA-A*01:01; experiment: IEDB peptide-MHC binding, purified MHC/competitive/fluorescence; filed as Kd, often an IC50 or EC50 that approximates it; ≥ and ≤ were set here for values at or beyond the usual limits of such assays; conditions: source organism: Coxiella burnetii

ETYNSINKY and MVEEKYNYFY cannot be ordered by Kd: no less than 1000 µM for the first, no less than 5 µM for the second.

VSDATVAKWY and VTLVEFFDY cannot be ordered by Kd: no less than 50 µM for the first, no less than 1000 µM for the second.

KTEQDKLSY and LTLLLNWVNY cannot be ordered by Kd: no less than 50 µM for the first, no less than 50 µM for the second.

HTYYLIGFLY and QSGWTIHHY cannot be ordered by Kd: no less than 50 µM for the first, no less than 1000 µM for the second.

SLESGFTYY and FFEDFTHRY cannot be ordered by Kd: no less than 5 µM for the first, no less than 1000 µM for the second.

molecular target: HLA-A*03:01; experiment: as above; conditions: source organism: Coxiella burnetii

ASFQNYLNDY and KTFVYPMGLY cannot be ordered by Kd: no less than 1000 µM for the first, no less than 5 µM for the second.

KLILFVYRY and VLDCNYLSK cannot be ordered by Kd: no less than 50 µM for the first, no less than 5 µM for the second.

LSATFITSK and ISYDRFTVGK cannot be ordered by Kd: no less than 5 µM for the first, no less than 5 µM for the second.

GVDRFITYK and ATSNLIYKLK cannot be ordered by Kd: no less than 5 µM for the first, no less than 5 µM for the second.

SLFANMNGHY and LLSTLCLYRK cannot be ordered by Kd: no less than 50 µM for the first, no less than 50 µM for the second.

molecular target: HLA-A*24:02; experiment: as above; conditions: source organism: Coxiella burnetii

TYRHNKKLL and TYRVLNYKDL cannot be ordered by Kd: no less than 50 µM for the first, no less than 50 µM for the second.

QYLQYLWPL and SFVPKFFLTF cannot be ordered by Kd: no less than 5 µM for the first, no less than 5 µM for the second.

GYHSITPYLF and LYDDEFKFL cannot be ordered by Kd: no less than 5 µM for the first, no less than 5 µM for the second.

WYVVNNNYL and NFSDYIWHF cannot be ordered by Kd: no less than 5 µM for the first, no less than 5 µM for the second.

In the case of IYDDRLLFEF, the Kd is reported as no less than 5 µM.

molecular target: HLA-B*07:02; experiment: as above; conditions: source organism: Coxiella burnetii

LPRNRYRLVF and TPDFPQLFF cannot be ordered by Kd: no less than 0.005 mM for the first, no less than 0.05 mM for the second.

SPHPRVNQF and KPLQVINRKY cannot be ordered by Kd: no less than 0.005 mM for the first, no less than 1 mM for the second.

LPQKPWWKF and LPRRHNFYNY cannot be ordered by Kd: no less than 1 mM for the first, no less than 1 mM for the second.

TPTFVIGNKA showed a Kd of no less than 1 mM.

molecular target: HLA-A*02:01; experiment: as above; conditions: source organism: Coxiella burnetii

YLVNHPEVL and RMYISFFPL cannot be ordered by Kd: no less than 50 µM for the first, no less than 5 µM for the second.

VIDDLIVYRV and FLFFYSGLIL cannot be ordered by Kd: no less than 50 µM for the first, no less than 5 µM for the second.

MLWLPLLLIL and LLWHGVSTL cannot be ordered by Kd: no less than 5 µM for the first, no less than 5 µM for the second.

IMIDRLIEQL and FLIAVFARHL cannot be ordered by Kd: no less than 5 µM for the first, no less than 5 µM for the second.

NMFQHLPYL and YLLDRCPFL cannot be ordered by Kd: no less than 5 µM for the first, no less than 5 µM for the second.

molecular target: HLA-B*44:02; experiment: as above; conditions: source organism: Coxiella burnetii

MEVRDLLNSY and NEIETATRY cannot be ordered by Kd: no less than 5 µM for the first, no less than 5 µM for the second.

METPPQSPDF and EEFVKTQSY cannot be ordered by Kd: no less than 1000 µM for the first, no less than 5 µM for the second.

REMYSRRRMY and GEEATAFLRY cannot be ordered by Kd: no less than 5 µM for the first, no less than 50 µM for the second.

IEVVKKYMDY and FEALHLLYAL cannot be ordered by Kd: no less than 1000 µM for the first, no less than 1000 µM for the second.

IERVFYYFPL and KDIQSIVHHY cannot be ordered by Kd: no less than 1000 µM for the first, no less than 1000 µM for the second.
